Results: article PMC6177447, “Cryo-EM structure of the hibernating Thermus thermophilus 100S ribosome reveals a protein-mediated dimerization mechanism” (Nature Communications, 2018)

Target: the molecule itself
Assay: SEC; purified TtHPF without ribosome on Superdex200 Increase 10/300 in buffer F (20 mM Hepes/KOH pH 7.5, 100 mM KCl, 10% v/v glycerol, 1 mM DTT); elution volume compared to standard proteins

B1: Thermus thermophilus hibernation-promoting factor (TtHPF) (natural protein, UniProt Q5SIS0 1-186, looked up)
chain: MNIYKLIGRNLEITDAIRDYVEKKLARLDRYQDGELMAKVVLSLAGSPHVEKKARAEIQVDLPGGLVRVEEEDADLYAAIDRAVDRLETQVKRFRERRYVGKRHSYQGPPPPEVRDLEALRKPEEEEGPRIVRVKRFEMKPMDPEEAAFQMEALGHSFFVFRNAKTDEINVIYRRKDGNYGLIEPA
notes: Hibernation-promoting factor TtHPF of Thermus thermophilus, UniProt Q5SIS0; gene amplified from genomic DNA with primers from the start codon to the stop codon; residues 2-122 (NTD and linker) and 129-185 (CTD) were modelled in the cryo-EM maps; The forward primer encodes a TEV site (ENLYFQG) directly before Met1, so a Gly probably remains at the N-terminus after TEV cleavage (surmised); The …
stoichiometry N: 2
